Patent publication US20140087995A1 (published 2014)
Numbered stars: 1 amine (or outer) side, 2 acyl side, 3 side chain; on linkers, the order of the positions; unused ones are H or OH. Bridge positions count the residues as written; N and C are the ends. Side chains are listed from the residue outwards. Ends that are not written are not given here. * marks the point of attachment. C20 diacid = O=C(O)CCCCCCCCCCCCCCCCCCC(=O)*; γGlu = O=C(O)[C@H](CCC(=O)[*:2])N[*:1]

T1: human calcitonin receptor (human, UniProt P30988 25-474)
T1 construct: whole, on cells; Used as cell membranes prepared from the transfected BHK cells (Assay VII), not as intact cells; also called hCTR; hCT
T1 sequence (looked up): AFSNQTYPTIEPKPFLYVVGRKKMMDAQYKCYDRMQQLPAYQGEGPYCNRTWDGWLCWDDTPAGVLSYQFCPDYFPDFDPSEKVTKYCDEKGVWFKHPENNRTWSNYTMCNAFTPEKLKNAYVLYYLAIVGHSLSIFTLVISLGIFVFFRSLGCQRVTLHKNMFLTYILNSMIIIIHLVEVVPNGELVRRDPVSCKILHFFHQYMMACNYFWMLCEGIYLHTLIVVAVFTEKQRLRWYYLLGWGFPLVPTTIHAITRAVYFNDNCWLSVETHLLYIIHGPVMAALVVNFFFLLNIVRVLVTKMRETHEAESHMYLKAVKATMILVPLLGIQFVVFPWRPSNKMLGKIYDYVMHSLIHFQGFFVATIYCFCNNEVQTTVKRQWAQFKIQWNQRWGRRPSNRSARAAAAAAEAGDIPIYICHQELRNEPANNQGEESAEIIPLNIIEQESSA

T2: human calcitonin receptor (human, UniProt P30988 25-474)
T2 construct: whole, on cells; Assay used cell membranes of the transfected BHK cells; also called hCTR; hCT
T2 sequence (looked up): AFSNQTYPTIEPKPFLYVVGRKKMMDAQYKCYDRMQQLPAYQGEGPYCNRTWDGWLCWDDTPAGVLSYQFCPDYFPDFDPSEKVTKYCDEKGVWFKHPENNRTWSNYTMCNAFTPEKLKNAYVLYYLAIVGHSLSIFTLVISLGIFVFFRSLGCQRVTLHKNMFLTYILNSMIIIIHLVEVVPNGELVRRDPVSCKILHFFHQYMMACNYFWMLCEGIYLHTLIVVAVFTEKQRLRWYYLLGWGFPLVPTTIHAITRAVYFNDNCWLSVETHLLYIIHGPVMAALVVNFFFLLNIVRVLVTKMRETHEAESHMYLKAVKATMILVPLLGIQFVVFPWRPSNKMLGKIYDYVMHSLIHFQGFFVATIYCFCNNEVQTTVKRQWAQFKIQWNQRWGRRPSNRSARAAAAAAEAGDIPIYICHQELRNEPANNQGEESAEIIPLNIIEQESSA


Target: T1, human calcitonin receptor
Test: SPA competition against 125I-calcitonin, membranes with human calcitonin receptor (Assay VII)
Description: Membranes were prepared in the following way; the cells were rinsed with PBS and incubated with Versene for approximately 5 min before harvesting. The cells were flushed with PBS and the cell-suspension was centrifuged for 5 min at 1000 rpm. Cells were homogenized (Ultrathurrax) in a buffer containing 20 mM Na-HEPES and 10 mM EDTA (pH 7.4) and centrifuged at 20.000 rpm for 15 min. The resulting pellet was resuspended, homogenized and centrifuged (20.000 rpm, 15 min) in a buffer containing 20 mM Na-HEPES and 0.1 mM EDTA (pH 7.4, buffer 2). The resulting pellet was resuspended in buffer 2 and protein concentration was measured (BCA protein Assay, Pierce). The homogenate was kept cold during the whole procedure. The membranes were kept at −80° C. until use. Assay was performed in a 384 well Optiplate (PerkinElmer) in a total volume of 40 ul. Membranes were mixed with SPA beads. Final concentration of membranes 35 ng/μL final and Final concentration of SPA beads was 0.05 mg/well. Test-compounds were dissolved in DMSO and further diluted in assay buffer (50 mM Hepes, pH 7.4, 1 mM CaCl2, 5 mM MgCl₂, 0.1% OA and 0.02% Tween20). […] The final mixture was incubated for 120 min with shaking at 400 rpm at 25° C. prior to centrifugation (1500 rpm, 10 min). Samples were analyzed on TopCounter™ (Packard). The […] was calculated using (one site binding competition analysis) GraphPad Prism5 as a measure of receptor affinity.

Binder | IC50 [nM]
{C20 diacid-γGlu}-KCNTATCATQRLANFLRHSSPNFGAIPSSTPVGSETY-NH2 (disulfide 2-7; SMILES CC[C@H](C)[C@H](NC(=O)[C@H](C)NC(=O)CNC(=O)[C@H](Cc1ccccc1)NC(=O)[C@H](CC(N)=O)NC(=O)[C@@H]1CCCN1C(=O)[C@H](CO)NC(=O)[C@H](CO)NC(=O)[C@H](Cc1c[nH]cn1)NC(=O)[C@H](CCCNC(=N)N)NC(=O)[C@H](CC(C)C)NC(=O)[C@H](Cc1ccccc1)NC(=O)[C@H](CC(N)=O)NC(=O)[C@H](C)NC(=O)[C@H](CC(C)C)NC(=O)[C@H](CCCNC(=N)N)NC(=O)[C@H](CCC(N)=O)NC(=O)[C@@H](NC(=O)[C@H](C)NC(=O)[C@@H]1CSSC[C@H](NC(=O)[C@H](CCCCN)NC(=O)CC[C@H](NC(=O)CCCCCCCCCCCCCCCCCCC(=O)O)C(=O)O)C(=O)N[C@@H](CC(N)=O)C(=O)N[C@@H]([C@@H](C)O)C(=O)N[C@@H](C)C(=O)N[C@@H]([C@@H](C)O)C(=O)N1)[C@@H](C)O)C(=O)N1CCC[C@H]1C(=O)N[C@@H](CO)C(=O)N[C@@H](CO)C(=O)N[C@H](C(=O)N1CCC[C@H]1C(=O)N[C@H](C(=O)NCC(=O)N[C@@H](CO)C(=O)N[C@@H](CCC(=O)O)C(=O)N[C@H](C(=O)N[C@@H](Cc1ccc(O)cc1)C(N)=O)[C@@H](C)O)C(C)C)[C@@H](C)O, also called compound 28) | 12.5
KCNTATCATQRLANFLRHSSPNFGAIPSSTNVGSETY (C20 diacid-gGlu on the alpha amino group of the N-terminal Lys1; disulfide Cys2-Cys7; C-terminal amide, also called compound 23) [N^α1-[(4S)-4-carboxy-4-(19-carboxynonadecanoylamino)butanoyl]-[Arg17,Pro21,Pro27,Glu35]-h-amylin] | 21.8

Target: T2, human calcitonin receptor
Test: SPA radioligand competition (125I-calcitonin), membranes of BHK cells with human calcitonin receptor
Outline: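 BHK hCTR membranes 35 ng/μL + SPA beads 0.05 mg/well; buffer 50 mM Hepes pH 7.4, 1 mM CaCl2, 5 mM MgCl₂, 0.1% OA, 0.02% Tween20. 120 min, 25° C., shaking. Scintillation count; IC50 by one-site binding competition.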

Binder | IC50 [nM]
K([γGlu-C20 diacid])CNTATCATQRLAEFLRHSSPNFGAIPSSTNVGSRTY-NH2 (disulfide 2-7; N-terminus assumed; SMILES CC[C@H](C)[C@H](NC(=O)[C@H](C)NC(=O)CNC(=O)[C@H](Cc1ccccc1)NC(=O)[C@H](CC(N)=O)NC(=O)[C@@H]1CCCN1C(=O)[C@H](CO)NC(=O)[C@H](CO)NC(=O)[C@H](Cc1c[nH]cn1)NC(=O)[C@H](CCCNC(=N)N)NC(=O)[C@H](CC(C)C)NC(=O)[C@H](Cc1ccccc1)NC(=O)[C@H](CCC(=O)O)NC(=O)[C@H](C)NC(=O)[C@H](CC(C)C)NC(=O)[C@H](CCCNC(=N)N)NC(=O)[C@H](CCC(N)=O)NC(=O)[C@@H](NC(=O)[C@H](C)NC(=O)[C@@H]1CSSC[C@H](NC(=O)[C@@H](N)CCCCNC(=O)CC[C@H](NC(=O)CCCCCCCCCCCCCCCCCCC(=O)O)C(=O)O)C(=O)N[C@@H](CC(N)=O)C(=O)N[C@@H]([C@@H](C)O)C(=O)N[C@@H](C)C(=O)N[C@@H]([C@@H](C)O)C(=O)N1)[C@@H](C)O)C(=O)N1CCC[C@H]1C(=O)N[C@@H](CO)C(=O)N[C@@H](CO)C(=O)N[C@H](C(=O)N[C@@H](CC(N)=O)C(=O)N[C@H](C(=O)NCC(=O)N[C@@H](CO)C(=O)N[C@@H](CCCNC(=N)N)C(=O)N[C@H](C(=O)N[C@@H](Cc1ccc(O)cc1)C(N)=O)[C@@H](C)O)C(C)C)[C@@H](C)O, Synthetic analogue; also called compound 51) | 31.1
K([γGlu-γGlu-C20 diacid])CNTATCATQRLADFLRHSSPNFGAIPSSTNVGSRTY-NH2 (disulfide 2-7; N-terminus assumed; SMILES CC[C@H](C)[C@H](NC(=O)[C@H](C)NC(=O)CNC(=O)[C@H](Cc1ccccc1)NC(=O)[C@H](CC(N)=O)NC(=O)[C@@H]1CCCN1C(=O)[C@H](CO)NC(=O)[C@H](CO)NC(=O)[C@H](Cc1c[nH]cn1)NC(=O)[C@H](CCCNC(=N)N)NC(=O)[C@H](CC(C)C)NC(=O)[C@H](Cc1ccccc1)NC(=O)[C@H](CC(=O)O)NC(=O)[C@H](C)NC(=O)[C@H](CC(C)C)NC(=O)[C@H](CCCNC(=N)N)NC(=O)[C@H](CCC(N)=O)NC(=O)[C@@H](NC(=O)[C@H](C)NC(=O)[C@@H]1CSSC[C@H](NC(=O)[C@@H](N)CCCCNC(=O)CC[C@H](NC(=O)CC[C@H](NC(=O)CCCCCCCCCCCCCCCCCCC(=O)O)C(=O)O)C(=O)O)C(=O)N[C@@H](CC(N)=O)C(=O)N[C@@H]([C@@H](C)O)C(=O)N[C@@H](C)C(=O)N[C@@H]([C@@H](C)O)C(=O)N1)[C@@H](C)O)C(=O)N1CCC[C@H]1C(=O)N[C@@H](CO)C(=O)N[C@@H](CO)C(=O)N[C@H](C(=O)N[C@@H](CC(N)=O)C(=O)N[C@H](C(=O)NCC(=O)N[C@@H](CO)C(=O)N[C@@H](CCCNC(=N)N)C(=O)N[C@H](C(=O)N[C@@H](Cc1ccc(O)cc1)C(N)=O)[C@@H](C)O)C(C)C)[C@@H](C)O, Synthetic analogue of human amylin; also called compound 52) | 56.9
K([γGlu-C20 diacid])CNTATCATQRLAHFLRHSSPNFGAIPSSTPVGSNTY-NH2 (disulfide 2-7; N-terminus assumed; SMILES CC[C@H](C)[C@H](NC(=O)[C@H](C)NC(=O)CNC(=O)[C@H](Cc1ccccc1)NC(=O)[C@H](CC(N)=O)NC(=O)[C@@H]1CCCN1C(=O)[C@H](CO)NC(=O)[C@H](CO)NC(=O)[C@H](Cc1c[nH]cn1)NC(=O)[C@H](CCCNC(=N)N)NC(=O)[C@H](CC(C)C)NC(=O)[C@H](Cc1ccccc1)NC(=O)[C@H](Cc1c[nH]cn1)NC(=O)[C@H](C)NC(=O)[C@H](CC(C)C)NC(=O)[C@H](CCCNC(=N)N)NC(=O)[C@H](CCC(N)=O)NC(=O)[C@@H](NC(=O)[C@H](C)NC(=O)[C@@H]1CSSC[C@H](NC(=O)[C@@H](N)CCCCNC(=O)CC[C@H](NC(=O)CCCCCCCCCCCCCCCCCCC(=O)O)C(=O)O)C(=O)N[C@@H](CC(N)=O)C(=O)N[C@@H]([C@@H](C)O)C(=O)N[C@@H](C)C(=O)N[C@@H]([C@@H](C)O)C(=O)N1)[C@@H](C)O)C(=O)N1CCC[C@H]1C(=O)N[C@@H](CO)C(=O)N[C@@H](CO)C(=O)N[C@H](C(=O)N1CCC[C@H]1C(=O)N[C@H](C(=O)NCC(=O)N[C@@H](CO)C(=O)N[C@@H](CC(N)=O)C(=O)N[C@H](C(=O)N[C@@H](Cc1ccc(O)cc1)C(N)=O)[C@@H](C)O)C(C)C)[C@@H](C)O, Synthetic analogue; also called compound 62) | 6.17
